Test results published in paper PMC10786891, “Massively parallel profiling of RNA-targeting CRISPR-Cas13d”.

T1: EsCas13d, nuclease-dead (Eubacterium siraeum, UniProt B0MS50, R295A;H300A;R849A;H854A)
T1 sequence: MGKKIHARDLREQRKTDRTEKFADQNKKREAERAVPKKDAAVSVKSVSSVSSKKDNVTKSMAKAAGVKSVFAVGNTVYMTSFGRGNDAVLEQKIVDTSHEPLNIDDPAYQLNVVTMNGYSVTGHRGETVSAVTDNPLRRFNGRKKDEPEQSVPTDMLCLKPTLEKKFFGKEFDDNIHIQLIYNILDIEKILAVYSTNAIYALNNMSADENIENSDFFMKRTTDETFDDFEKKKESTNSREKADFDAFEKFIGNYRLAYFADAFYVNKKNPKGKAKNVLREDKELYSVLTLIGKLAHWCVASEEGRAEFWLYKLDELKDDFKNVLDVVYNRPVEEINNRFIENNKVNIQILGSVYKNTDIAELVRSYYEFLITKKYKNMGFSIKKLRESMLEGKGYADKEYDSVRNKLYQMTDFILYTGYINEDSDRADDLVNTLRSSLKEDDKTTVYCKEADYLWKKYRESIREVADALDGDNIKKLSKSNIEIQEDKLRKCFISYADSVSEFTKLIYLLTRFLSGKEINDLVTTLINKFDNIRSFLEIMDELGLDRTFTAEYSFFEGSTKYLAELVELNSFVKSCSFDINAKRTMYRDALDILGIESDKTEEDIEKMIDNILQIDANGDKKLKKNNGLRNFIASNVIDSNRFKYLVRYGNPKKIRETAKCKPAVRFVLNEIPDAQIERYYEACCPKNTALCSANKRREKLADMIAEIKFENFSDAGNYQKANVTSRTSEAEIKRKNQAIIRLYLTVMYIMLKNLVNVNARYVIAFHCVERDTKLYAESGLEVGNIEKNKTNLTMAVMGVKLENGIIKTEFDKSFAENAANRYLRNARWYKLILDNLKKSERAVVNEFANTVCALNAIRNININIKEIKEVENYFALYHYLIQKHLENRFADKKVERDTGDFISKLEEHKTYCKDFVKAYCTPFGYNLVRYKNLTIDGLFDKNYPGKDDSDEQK

B1: target 1 insA 3' of 5,insG 3' of 1 (mixed)
RNA 1: CACCCGUGCAAAAAUGCAGGGGUCUAAAACUGAGCGGAUAACCUCUCUAUGG
RNA 2: GGGAAUGGAUCCACAUCUACGAAUUCGUACCAUAGAGAGGUUAUCCGACUCAGCCGAGAUCGGAAGAGCACACGU
B2: target 1 insA 3' of 5,insA 3' of 2 (mixed)
RNA 1: CACCCGUGCAAAAAUGCAGGGGUCUAAAACUGAGCGGAUAACCUCUCUAUGG
RNA 2: GGGAAUGGAUCCACAUCUACGAAUUCGUACCAUAGAGAGGUUAUCCGACUCAACCGAGAUCGGAAGAGCACACGU
B3: target 3 complement block 1-3 (mixed)
RNA 1: CACCCGUGCAAAAUUGCAGGGGUCUAAAACGACCUGAAUAUUUCAGAUCAAA
RNA 2: GGGAAUGGAUCCACAUCUACGAAUUCGUUUUUGAUCUGAAAUAUUCAGCAGUGCAGAUCGGAAGAGCACACGU
B4: target 3 U2A,A13U (mixed)
RNA 1: CACCCGUGCAAAAUUGCAGGGGUCUAAAACGACCUGAAUAUUUCAGAUCAAA
RNA 2: GGGAAUGGAUCCACAUCUACGAAUUCGUUUUUGAUCUGUAAUAUUCAGGACUGCAGAUCGGAAGAGCACACGU
B5: target 3 C6A,U7A (mixed)
RNA 1: CACCCGUGCAAAAUUGCAGGGGUCUAAAACGACCUGAAUAUUUCAGAUCAAA
RNA 2: GGGAAUGGAUCCACAUCUACGAAUUCGUUUUUGAUCUGAAAUAUAAAGGUCUGCAGAUCGGAAGAGCACACGU
B6: target 3 insA 3' of 8,insA 3' of 2 (mixed)
RNA 1: CACCCGUGCAAAAUUGCAGGGGUCUAAAACGACCUGAAUAUUUCAGAUCAAA
RNA 2: GGGAAUGGAUCCACAUCUACGAAUUCGUUUUUGAUCUGAAAUAUAUCAGGUACUGCAGAUCGGAAGAGCACACGU
B7: target 3 G4U,A11G (mixed)
RNA 1: CACCCGUGCAAAAUUGCAGGGGUCUAAAACGACCUGAAUAUUUCAGAUCAAA
RNA 2: GGGAAUGGAUCCACAUCUACGAAUUCGUUUUUGAUCUGAAGUAUUCAUGUCUGCAGAUCGGAAGAGCACACGU
B8: target 3 C6G,U8C (mixed)
RNA 1: CACCCGUGCAAAAUUGCAGGGGUCUAAAACGACCUGAAUAUUUCAGAUCAAA
RNA 2: GGGAAUGGAUCCACAUCUACGAAUUCGUUUUUGAUCUGAAAUACUGAGGUCUGCAGAUCGGAAGAGCACACGU
B9: target 3 U2A,U7A (mixed)
RNA 1: CACCCGUGCAAAAUUGCAGGGGUCUAAAACGACCUGAAUAUUUCAGAUCAAA
RNA 2: GGGAAUGGAUCCACAUCUACGAAUUCGUUUUUGAUCUGAAAUAUACAGGACUGCAGAUCGGAAGAGCACACGU
B10: target 3 C6G,U22A (mixed)
RNA 1: CACCCGUGCAAAAUUGCAGGGGUCUAAAACGACCUGAAUAUUUCAGAUCAAA
RNA 2: GGGAAUGGAUCCACAUCUACGAAUUCGUUAUUGAUCUGAAAUAUUGAGGUCUGCAGAUCGGAAGAGCACACGU
B11: target 3 insC 3' of 9,insG 3' of 2 (mixed)
RNA 1: CACCCGUGCAAAAUUGCAGGGGUCUAAAACGACCUGAAUAUUUCAGAUCAAA
RNA 2: GGGAAUGGAUCCACAUCUACGAAUUCGUUUUUGAUCUGAAAUACUUCAGGUGCUGCAGAUCGGAAGAGCACACGU
B12: target 3 C1U,U22G (mixed)
RNA 1: CACCCGUGCAAAAUUGCAGGGGUCUAAAACGACCUGAAUAUUUCAGAUCAAA
RNA 2: GGGAAUGGAUCCACAUCUACGAAUUCGUUGUUGAUCUGAAAUAUUCAGGUUUGCAGAUCGGAAGAGCACACGU
B13: target 3 U2A,G3C (mixed)
RNA 1: CACCCGUGCAAAAUUGCAGGGGUCUAAAACGACCUGAAUAUUUCAGAUCAAA
RNA 2: GGGAAUGGAUCCACAUCUACGAAUUCGUUUUUGAUCUGAAAUAUUCAGCACUGCAGAUCGGAAGAGCACACGU
B14: target 3 complement block 13-15 (mixed)
RNA 1: CACCCGUGCAAAAUUGCAGGGGUCUAAAACGACCUGAAUAUUUCAGAUCAAA
RNA 2: GGGAAUGGAUCCACAUCUACGAAUUCGUUUUUGAUCACUAAUAUUCAGGUCUGCAGAUCGGAAGAGCACACGU
B15: target 3 insU 3' of 22 (mixed)
RNA 1: CACCCGUGCAAAAUUGCAGGGGUCUAAAACGACCUGAAUAUUUCAGAUCAAA
RNA 2: GGGAAUGGAUCCACAUCUACGAAUUCGUUUUUUGAUCUGAAAUAUUCAGGUCUGCAGAUCGGAAGAGCACACGU
B16: target 3 insG 3' of 9,insU 3' of 5 (mixed)
RNA 1: CACCCGUGCAAAAUUGCAGGGGUCUAAAACGACCUGAAUAUUUCAGAUCAAA
RNA 2: GGGAAUGGAUCCACAUCUACGAAUUCGUUUUUGAUCUGAAAUAGUUCAUGGUCUGCAGAUCGGAAGAGCACACGU
B17: target 3 G3U,C6U (mixed)
RNA 1: CACCCGUGCAAAAUUGCAGGGGUCUAAAACGACCUGAAUAUUUCAGAUCAAA
RNA 2: GGGAAUGGAUCCACAUCUACGAAUUCGUUUUUGAUCUGAAAUAUUUAGUUCUGCAGAUCGGAAGAGCACACGU
B18: target 3 U2G,A12U (mixed)
RNA 1: CACCCGUGCAAAAUUGCAGGGGUCUAAAACGACCUGAAUAUUUCAGAUCAAA
RNA 2: GGGAAUGGAUCCACAUCUACGAAUUCGUUUUUGAUCUGAUAUAUUCAGGGCUGCAGAUCGGAAGAGCACACGU
B19: target 3 insC 3' of 9,insA 3' of 7 (mixed)
RNA 1: CACCCGUGCAAAAUUGCAGGGGUCUAAAACGACCUGAAUAUUUCAGAUCAAA
RNA 2: GGGAAUGGAUCCACAUCUACGAAUUCGUUUUUGAUCUGAAAUACUUACAGGUCUGCAGAUCGGAAGAGCACACGU
B20: target 3 U8A,A11C (mixed)
RNA 1: CACCCGUGCAAAAUUGCAGGGGUCUAAAACGACCUGAAUAUUUCAGAUCAAA
RNA 2: GGGAAUGGAUCCACAUCUACGAAUUCGUUUUUGAUCUGAACUAAUCAGGUCUGCAGAUCGGAAGAGCACACGU
B21: target 3 insG 3' of 5,insA 3' of 4 (mixed)
RNA 1: CACCCGUGCAAAAUUGCAGGGGUCUAAAACGACCUGAAUAUUUCAGAUCAAA
RNA 2: GGGAAUGGAUCCACAUCUACGAAUUCGUUUUUGAUCUGAAAUAUUCAGGAGUCUGCAGAUCGGAAGAGCACACGU
B22: target 3 U7A,U8A (mixed)
RNA 1: CACCCGUGCAAAAUUGCAGGGGUCUAAAACGACCUGAAUAUUUCAGAUCAAA
RNA 2: GGGAAUGGAUCCACAUCUACGAAUUCGUUUUUGAUCUGAAAUAAACAGGUCUGCAGAUCGGAAGAGCACACGU
B23: target 3 A12G,A18G (mixed)
RNA 1: CACCCGUGCAAAAUUGCAGGGGUCUAAAACGACCUGAAUAUUUCAGAUCAAA
RNA 2: GGGAAUGGAUCCACAUCUACGAAUUCGUUUUUGGUCUGAGAUAUUCAGGUCUGCAGAUCGGAAGAGCACACGU
B24: target 3 insG 3' of 6,insG 3' of 2 (mixed)
RNA 1: CACCCGUGCAAAAUUGCAGGGGUCUAAAACGACCUGAAUAUUUCAGAUCAAA
RNA 2: GGGAAUGGAUCCACAUCUACGAAUUCGUUUUUGAUCUGAAAUAUUCGAGGUGCUGCAGAUCGGAAGAGCACACGU
B25: target 3 G4U,A5G (mixed)
RNA 1: CACCCGUGCAAAAUUGCAGGGGUCUAAAACGACCUGAAUAUUUCAGAUCAAA
RNA 2: GGGAAUGGAUCCACAUCUACGAAUUCGUUUUUGAUCUGAAAUAUUCGUGUCUGCAGAUCGGAAGAGCACACGU
B26: target 3 G4U,U8A (mixed)
RNA 1: CACCCGUGCAAAAUUGCAGGGGUCUAAAACGACCUGAAUAUUUCAGAUCAAA
RNA 2: GGGAAUGGAUCCACAUCUACGAAUUCGUUUUUGAUCUGAAAUAAUCAUGUCUGCAGAUCGGAAGAGCACACGU
B27: target 3 G3U,C6A (mixed)
RNA 1: CACCCGUGCAAAAUUGCAGGGGUCUAAAACGACCUGAAUAUUUCAGAUCAAA
RNA 2: GGGAAUGGAUCCACAUCUACGAAUUCGUUUUUGAUCUGAAAUAUUAAGUUCUGCAGAUCGGAAGAGCACACGU
B28: target 3 del2,del19 (mixed)
RNA 1: CACCCGUGCAAAAUUGCAGGGGUCUAAAACGACCUGAAUAUUUCAGAUCAAA
RNA 2: GGGAAUGGAUCCACAUCUACGAAUUCGUUUUUAUCUGAAAUAUUCAGGCUGCAGAUCGGAAGAGCACACGU

target: T1, EsCas13d, nuclease-dead; test: crRNA (strand 1, pre-loaded); Mg2+; 40 mM Tris-HCl pH 7.5, 150 mM NaCl, 6 mM MgCl2, 1 mM DTT, 0.1% Tween-20, 0.2 mg/ml BSA; 25 C; 10 min per concentration, then washed; settings: tags: His6-TwinStrep-SUMO cleaved; N-terminal SNAP kept (SNAP-Surface 488); label: 3' end held by stalled T7 RNA polymerase

B1 and B2 are within 1.5-fold of each other in Kd: 5.4 ± 0.4 nM for the first, 7.8 ± 0.7 nM for the second.

First: B3
Second: B4
The Kd of the first is 4-fold lower: 23.1 ± 3.9 nM for the first, roughly 91.5 nM for the second.

B5 and B6 are within error of each other in Kd: 46.5 ± 5 nM for the first, 59.5 ± 18.5 nM for the second.

First: B7
Second: B8
The Kd of the first is 1.7-fold lower: 43.5 ± 8 nM for the first, 74.5 ± 7 nM for the second.

Compared with B9, B10 is 2-fold higher in Kd: 13.1 ± 1.7 nM for the first, 26.2 ± 3.5 nM for the second.

B11 and B12 are within error of each other in Kd: 81.5 ± 19 nM for the first, 77.5 ± 21 nM for the second.

Going from B13 to B14, the Kd rises from 23.2 ± 2 nM to 67.8 ± 31.8 nM (2.9-fold). The first binds more tightly here.

First: B15
Second: B16
The Kd of the first is 3.8-fold lower: 17.4 ± 1.8 nM for the first, 65.5 ± 9 nM for the second.

Compared with B17, B18 is 2.4-fold higher in Kd: 19.2 ± 1.95 nM for the first, 46.5 ± 6.5 nM for the second.

B19 and B20 are within error of each other in Kd: 60.5 ± 12.5 nM for the first, 42 ± 7 nM for the second.

First: B21
Second: B22
The Kd of the first is 9-fold lower: 9.2 ± 1.05 nM for the first, 83 ± 15.5 nM for the second.

First: B23
Second: B24
The Kd of the first is 3.8-fold higher: 62 ± 13 nM for the first, 16.3 ± 3 nM for the second.

First: B25
Second: B26
The Kd of the first is 4.3-fold lower: 7.04 ± 0.57 nM for the first, 30.2 ± 3.9 nM for the second. The first binds more tightly here.

Compared with B27, B28 is 2.5-fold higher in Kd: 39.7 ± 3.65 nM for the first, 98.5 ± 25 nM for the second.
